Test results: patent US20260209355

Legend:
[1] = tested on: quenched fluorogenic peptide of the human CD28 stalk region with L145K
[2] = tested on: c-Myc conjugated and biotinylated human CD28 stalk region dimeric peptide (wild-type)
[3] = tested on: quenched fluorogenic peptide of the human CD28 stalk region (WT)

Sequence of c-Myc conjugated and biotinylated human CD28 stalk region dimeric peptide (wild-type) (chain, as listed by the source): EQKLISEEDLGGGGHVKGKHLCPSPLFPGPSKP

Substance: Recombinant human MMP-13
- fluorescence from cleavage of quenched fluorogenic peptide (2.5 µM peptide, 30 ng enzyme) [1]: both were completely incapable of cleaving the mutant peptide
- intact peptide by anti-Myc ELISA (25 and 50 ng enzyme, 5 hours) [2]: the WT peptide was cleaved in a dose dependent manner
- fluorescence from cleavage of quenched fluorogenic peptide [3]: MMP-13 also cleaves the stalk domain, but at a much lower rate and efficiency than MMP-2
- fluorescence from cleavage of quenched fluorogenic peptide (2.5 µM peptide, 30 ng enzyme) [3]: both enzymes efficiently cleaved the WT peptide
- fluorescence from cleavage of quenched fluorogenic peptide, titration of protease [3]: the cleavage of the peptide was dose dependent
